From paper PMC4539346 come the findings set out here.

Broadly, the Kd is the concentration at which binding is half-saturated. Low values mean higher affinity, high ones lower affinity. As a reminder, the koff is the rate constant with which the complex falls apart. Usually kon stands for a measure of how fast the partners come together.

The assay addresses human IgM (Calbiochem 401108) (human). The experiment in a line: SPR; IgM amine-coupled to a GLC sensor chip (about 10,000 RU, pH 5), ProteOn XP36; DBL4ζ proteins flowed at 600-18.75 nM, 25 μl/min, 25 °C, 10 mM Tris pH 7.4, 140 mM NaCl, 2 mM CaCl2, 0.005% Tween-20; 1:1 Langmuir kinetic model. (SPR reads the build-up and loss of mass on a sensor chip optically.)
The substance “recombinant TM284var1 DBL4ζ E1663R (his-tagged, E. coli) (domain or fragment)” gave a Kd of 115 nM, a koff of 0.0148 s⁻¹ and a kon of 129000 M⁻¹ s⁻¹.

For the substance “recombinant TM284var1 DBL4ζ E1663R, E1665R, R1764E, E1779K (his-tagged, E. coli) (domain or fragment)”, the Kd stood at 41.2 nM, the koff came out at 0.00254 s⁻¹ and the kon came to 61600 M⁻¹ s⁻¹.

Substance “recombinant TM284var1 DBL4ζ E1663R, R1764E (his-tagged, E. coli) (domain or fragment)” had a Kd of 33.2 nM, a koff of 0.00159 s⁻¹ and a kon of 49400 M⁻¹ s⁻¹.

“recombinant TM284var1 DBL4ζ R1764E (his-tagged, E. coli) (domain or fragment)” showed a Kd of 41.6 nM, a koff of 0.00189 s⁻¹ and an on-rate constant (kon) of 45100 M⁻¹ s⁻¹.

Regarding “recombinant TM284var1 DBL4ζ wild type (his-tagged, E. coli) (domain or fragment)”, the dissociation constant (Kd) was found to be 66.2 nM, the koff is 0.0118 s⁻¹ and the kon was found to be 179000 M⁻¹ s⁻¹.
